According to patent US12679878B2, “CRF2 receptor agonists and their use in therapy” (SANOFI, priority 2020, dated 2026):
Starred links: 1 amine or outer side, 2 acyl side, 3 side chain; linkers in the order of their positions; H or OH if unused. Non-standard residues stand in square brackets, D forms with d. Groups on a side chain read outwards from the residue. No end group written: not given here. *: point of attachment. C18 diacid = O=C(O)CCCCCCCCCCCCCCCCC(=O)*; γGlu = O=C(O)[C@H](CCC(=O)[*:2])N[*:1]; AEEA = NCCOCCOCC(=O)O; Aib = CC(C)(N)C(=O)O

B1: SEQ ID NO: 13 (peptide)
peptide: FTLSLDVPTKIK([AEEA-AEEA-γGlu-C18 diacid])QILFKQQKQKKERQQAEKNKQLLEQI-NH2
modifications: N-terminus assumed
SMILES: CC[C@H](C)[C@H](NC(=O)[C@H](CCC(N)=O)NC(=O)[C@H](CCC(=O)O)NC(=O)[C@H](CC(C)C)NC(=O)[C@H](CC(C)C)NC(=O)[C@H](CCC(N)=O)NC(=O)[C@H](CCCCN)NC(=O)[C@H](CC(N)=O)NC(=O)[C@H](CCCCN)NC(=O)[C@H](CCC(=O)O)NC(=O)[C@H](C)NC(=O)[C@H](CCC(N)=O)NC(=O)[C@H](CCC(N)=O)NC(=O)[C@H](CCCNC(=N)N)NC(=O)[C@H](CCC(=O)O)NC(=O)[C@H](CCCCN)NC(=O)[C@H](CCCCN)NC(=O)[C@H](CCC(N)=O)NC(=O)[C@H](CCCCN)NC(=O)[C@H](CCC(N)=O)NC(=O)[C@H](CCC(N)=O)NC(=O)[C@H](CCCCN)NC(=O)[C@H](Cc1ccccc1)NC(=O)[C@H](CC(C)C)NC(=O)[C@@H](NC(=O)[C@H](CCC(N)=O)NC(=O)[C@H](CCCCNC(=O)COCCOCCNC(=O)COCCOCCNC(=O)CC[C@H](NC(=O)CCCCCCCCCCCCCCCCC(=O)O)C(=O)O)NC(=O)[C@@H](NC(=O)[C@H](CCCCN)NC(=O)[C@@H](NC(=O)[C@@H]1CCCN1C(=O)[C@@H](NC(=O)[C@H](CC(=O)O)NC(=O)[C@H](CC(C)C)NC(=O)[C@H](CO)NC(=O)[C@H](CC(C)C)NC(=O)[C@@H](NC(=O)[C@@H](N)Cc1ccccc1)[C@@H](C)O)C(C)C)[C@@H](C)O)[C@@H](C)CC)[C@@H](C)CC)C(N)=O
B2: SEQ ID NO: 128 (peptide)
peptide: IVLSLD[dV]PIKLK([AEEA-AEEA-γGlu-C18 diacid])QILLKQARQK[Aib]QREQAEKNKRILERV-NH2
modifications: N-terminus assumed
SMILES: CC[C@H](C)[C@H](N)C(=O)N[C@H](C(=O)N[C@@H](CC(C)C)C(=O)N[C@@H](CO)C(=O)N[C@@H](CC(C)C)C(=O)N[C@@H](CC(=O)O)C(=O)N[C@@H](C(=O)N1CCC[C@H]1C(=O)N[C@H](C(=O)N[C@@H](CCCCN)C(=O)N[C@@H](CC(C)C)C(=O)N[C@@H](CCCCNC(=O)COCCOCCNC(=O)COCCOCCNC(=O)CC[C@H](NC(=O)CCCCCCCCCCCCCCCCC(=O)O)C(=O)O)C(=O)N[C@@H](CCC(N)=O)C(=O)N[C@H](C(=O)N[C@@H](CC(C)C)C(=O)N[C@@H](CC(C)C)C(=O)N[C@@H](CCCCN)C(=O)N[C@@H](CCC(N)=O)C(=O)N[C@@H](C)C(=O)N[C@@H](CCCNC(=N)N)C(=O)N[C@@H](CCC(N)=O)C(=O)N[C@@H](CCCCN)C(=O)NC(C)(C)C(=O)N[C@@H](CCC(N)=O)C(=O)N[C@@H](CCCNC(=N)N)C(=O)N[C@@H](CCC(=O)O)C(=O)N[C@@H](CCC(N)=O)C(=O)N[C@@H](C)C(=O)N[C@@H](CCC(=O)O)C(=O)N[C@@H](CCCCN)C(=O)N[C@@H](CC(N)=O)C(=O)N[C@@H](CCCCN)C(=O)N[C@@H](CCCNC(=N)N)C(=O)N[C@H](C(=O)N[C@@H](CC(C)C)C(=O)N[C@@H](CCC(=O)O)C(=O)N[C@@H](CCCNC(=N)N)C(=O)N[C@H](C(N)=O)C(C)C)[C@@H](C)CC)[C@@H](C)CC)[C@@H](C)CC)C(C)C)C(C)C
B3: SEQ ID NO: 125 (peptide)
peptide: IVLSLDVPIKLK([AEEA-AEEA-γGlu-C18 diacid])QILLEQARQK[Aib]QREQAEKNKRILERV-NH2
modifications: N-terminus assumed
SMILES: CC[C@H](C)[C@H](N)C(=O)N[C@H](C(=O)N[C@@H](CC(C)C)C(=O)N[C@@H](CO)C(=O)N[C@@H](CC(C)C)C(=O)N[C@@H](CC(=O)O)C(=O)N[C@H](C(=O)N1CCC[C@H]1C(=O)N[C@H](C(=O)N[C@@H](CCCCN)C(=O)N[C@@H](CC(C)C)C(=O)N[C@@H](CCCCNC(=O)COCCOCCNC(=O)COCCOCCNC(=O)CC[C@H](NC(=O)CCCCCCCCCCCCCCCCC(=O)O)C(=O)O)C(=O)N[C@@H](CCC(N)=O)C(=O)N[C@H](C(=O)N[C@@H](CC(C)C)C(=O)N[C@@H](CC(C)C)C(=O)N[C@@H](CCC(=O)O)C(=O)N[C@@H](CCC(N)=O)C(=O)N[C@@H](C)C(=O)N[C@@H](CCCNC(=N)N)C(=O)N[C@@H](CCC(N)=O)C(=O)N[C@@H](CCCCN)C(=O)NC(C)(C)C(=O)N[C@@H](CCC(N)=O)C(=O)N[C@@H](CCCNC(=N)N)C(=O)N[C@@H](CCC(=O)O)C(=O)N[C@@H](CCC(N)=O)C(=O)N[C@@H](C)C(=O)N[C@@H](CCC(=O)O)C(=O)N[C@@H](CCCCN)C(=O)N[C@@H](CC(N)=O)C(=O)N[C@@H](CCCCN)C(=O)N[C@@H](CCCNC(=N)N)C(=O)N[C@H](C(=O)N[C@@H](CC(C)C)C(=O)N[C@@H](CCC(=O)O)C(=O)N[C@@H](CCCNC(=N)N)C(=O)N[C@H](C(N)=O)C(C)C)[C@@H](C)CC)[C@@H](C)CC)[C@@H](C)CC)C(C)C)C(C)C
B4: SEQ ID NO: 126 (peptide)
peptide: IVLSLD[dV]PIKLK([AEEA-AEEA-γGlu-C18 diacid])QILLEQAKQK[Aib]QRAQAEKNKRILERV-NH2
modifications: N-terminus assumed
SMILES: CC[C@H](C)[C@H](N)C(=O)N[C@H](C(=O)N[C@@H](CC(C)C)C(=O)N[C@@H](CO)C(=O)N[C@@H](CC(C)C)C(=O)N[C@@H](CC(=O)O)C(=O)N[C@@H](C(=O)N1CCC[C@H]1C(=O)N[C@H](C(=O)N[C@@H](CCCCN)C(=O)N[C@@H](CC(C)C)C(=O)N[C@@H](CCCCNC(=O)COCCOCCNC(=O)COCCOCCNC(=O)CC[C@H](NC(=O)CCCCCCCCCCCCCCCCC(=O)O)C(=O)O)C(=O)N[C@@H](CCC(N)=O)C(=O)N[C@H](C(=O)N[C@@H](CC(C)C)C(=O)N[C@@H](CC(C)C)C(=O)N[C@@H](CCC(=O)O)C(=O)N[C@@H](CCC(N)=O)C(=O)N[C@@H](C)C(=O)N[C@@H](CCCCN)C(=O)N[C@@H](CCC(N)=O)C(=O)N[C@@H](CCCCN)C(=O)NC(C)(C)C(=O)N[C@@H](CCC(N)=O)C(=O)N[C@@H](CCCNC(=N)N)C(=O)N[C@@H](C)C(=O)N[C@@H](CCC(N)=O)C(=O)N[C@@H](C)C(=O)N[C@@H](CCC(=O)O)C(=O)N[C@@H](CCCCN)C(=O)N[C@@H](CC(N)=O)C(=O)N[C@@H](CCCCN)C(=O)N[C@@H](CCCNC(=N)N)C(=O)N[C@H](C(=O)N[C@@H](CC(C)C)C(=O)N[C@@H](CCC(=O)O)C(=O)N[C@@H](CCCNC(=N)N)C(=O)N[C@H](C(N)=O)C(C)C)[C@@H](C)CC)[C@@H](C)CC)[C@@H](C)CC)C(C)C)C(C)C
B5: SEQ ID NO: 124 (peptide)
peptide: IVLSLDVPIKLK([AEEA-AEEA-γGlu-C18 diacid])QILLKQARQK[Aib]QRAQAEKNKRILERV-NH2
modifications: N-terminus assumed
SMILES: CC[C@H](C)[C@H](N)C(=O)N[C@H](C(=O)N[C@@H](CC(C)C)C(=O)N[C@@H](CO)C(=O)N[C@@H](CC(C)C)C(=O)N[C@@H](CC(=O)O)C(=O)N[C@H](C(=O)N1CCC[C@H]1C(=O)N[C@H](C(=O)N[C@@H](CCCCN)C(=O)N[C@@H](CC(C)C)C(=O)N[C@@H](CCCCNC(=O)COCCOCCNC(=O)COCCOCCNC(=O)CC[C@H](NC(=O)CCCCCCCCCCCCCCCCC(=O)O)C(=O)O)C(=O)N[C@@H](CCC(N)=O)C(=O)N[C@H](C(=O)N[C@@H](CC(C)C)C(=O)N[C@@H](CC(C)C)C(=O)N[C@@H](CCCCN)C(=O)N[C@@H](CCC(N)=O)C(=O)N[C@@H](C)C(=O)N[C@@H](CCCNC(=N)N)C(=O)N[C@@H](CCC(N)=O)C(=O)N[C@@H](CCCCN)C(=O)NC(C)(C)C(=O)N[C@@H](CCC(N)=O)C(=O)N[C@@H](CCCNC(=N)N)C(=O)N[C@@H](C)C(=O)N[C@@H](CCC(N)=O)C(=O)N[C@@H](C)C(=O)N[C@@H](CCC(=O)O)C(=O)N[C@@H](CCCCN)C(=O)N[C@@H](CC(N)=O)C(=O)N[C@@H](CCCCN)C(=O)N[C@@H](CCCNC(=N)N)C(=O)N[C@H](C(=O)N[C@@H](CC(C)C)C(=O)N[C@@H](CCC(=O)O)C(=O)N[C@@H](CCCNC(=N)N)C(=O)N[C@H](C(N)=O)C(C)C)[C@@H](C)CC)[C@@H](C)CC)[C@@H](C)CC)C(C)C)C(C)C
B6: SEQ ID NO: 127 (peptide)
peptide: IVLSLD[dV]PIKLK([AEEA-AEEA-γGlu-C18 diacid])QILLEQAKQK[Aib]QREQAEKNKRILERV-NH2
modifications: N-terminus assumed
SMILES: CC[C@H](C)[C@H](N)C(=O)N[C@H](C(=O)N[C@@H](CC(C)C)C(=O)N[C@@H](CO)C(=O)N[C@@H](CC(C)C)C(=O)N[C@@H](CC(=O)O)C(=O)N[C@@H](C(=O)N1CCC[C@H]1C(=O)N[C@H](C(=O)N[C@@H](CCCCN)C(=O)N[C@@H](CC(C)C)C(=O)N[C@@H](CCCCNC(=O)COCCOCCNC(=O)COCCOCCNC(=O)CC[C@H](NC(=O)CCCCCCCCCCCCCCCCC(=O)O)C(=O)O)C(=O)N[C@@H](CCC(N)=O)C(=O)N[C@H](C(=O)N[C@@H](CC(C)C)C(=O)N[C@@H](CC(C)C)C(=O)N[C@@H](CCC(=O)O)C(=O)N[C@@H](CCC(N)=O)C(=O)N[C@@H](C)C(=O)N[C@@H](CCCCN)C(=O)N[C@@H](CCC(N)=O)C(=O)N[C@@H](CCCCN)C(=O)NC(C)(C)C(=O)N[C@@H](CCC(N)=O)C(=O)N[C@@H](CCCNC(=N)N)C(=O)N[C@@H](CCC(=O)O)C(=O)N[C@@H](CCC(N)=O)C(=O)N[C@@H](C)C(=O)N[C@@H](CCC(=O)O)C(=O)N[C@@H](CCCCN)C(=O)N[C@@H](CC(N)=O)C(=O)N[C@@H](CCCCN)C(=O)N[C@@H](CCCNC(=N)N)C(=O)N[C@H](C(=O)N[C@@H](CC(C)C)C(=O)N[C@@H](CCC(=O)O)C(=O)N[C@@H](CCCNC(=N)N)C(=O)N[C@H](C(N)=O)C(C)C)[C@@H](C)CC)[C@@H](C)CC)[C@@H](C)CC)C(C)C)C(C)C

Target: human corticotropin-releasing factor 2α (CRF2 α receptor) (human), Q13324
Sequence (Q13324 20-411): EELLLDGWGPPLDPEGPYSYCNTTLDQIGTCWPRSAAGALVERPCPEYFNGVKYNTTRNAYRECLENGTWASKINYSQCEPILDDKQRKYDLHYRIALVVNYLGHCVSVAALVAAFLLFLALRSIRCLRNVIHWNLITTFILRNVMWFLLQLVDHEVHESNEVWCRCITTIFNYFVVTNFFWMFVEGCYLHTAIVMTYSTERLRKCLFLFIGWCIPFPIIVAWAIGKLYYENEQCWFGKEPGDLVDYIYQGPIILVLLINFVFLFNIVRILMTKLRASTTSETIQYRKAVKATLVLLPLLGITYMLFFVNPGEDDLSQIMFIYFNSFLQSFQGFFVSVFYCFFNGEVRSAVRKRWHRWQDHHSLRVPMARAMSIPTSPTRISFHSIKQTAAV
Assay: cell-based or functional assay

| EC50 [nM], 0% HSA | EC50 [nM], 0.1% HSA | Binder |
| --- | --- | --- |
| 0.98 nM | 64.1 nM | B1 |
| 0.64 nM | 20.1 nM | B2 |
| 0.47 nM | 19.9 nM | B3 |
| 0.22 nM | 5.59 nM | B4 |
| 0.11 nM | 4.37 nM | B5 |
| 0.16 nM | 5.14 nM | B6 |
